Laboratory results reported in PMC12503259, “Establishment of an in vivo analytical method for detecting total anti-UFH activity and pharmacokinetic study in PS and R15 in rats” (PLOS One, 2025).
Read-outs that look alike come from different tables or passages of the source.

Experiments:
[1] = clinical use; cited from earlier work
Description: PS is a cationic protein mixture with a molecular weight of 4000–6000 Da, and is the only heparin antagonist approved for clinical use. PS is primarily extracted from the sperm of wild salmon species, and this cationic protein binds to the anionic heparin, forming a UFH-PS complex that neutralizes the activity of heparin [7–10]. However, PS is associated with several adverse reactions in clinical applications, such as systemic hypotension, pulmonary hypertension, and allergic reactions. Despite extensive exploration of its mechanisms, the underlying causes of PS-related a ...

[2] = system: activated partial thromboplastin time (APTT); conditions: in vitro, supratherapeutic amounts; cited from earlier work
[3] = Pharmacokinetic study in Wistar rats, total anti-heparin activity in plasma (fixed UFH added, residual UFH by anti-FXa kit); assay type: in vivo
Description: Processing of Plasma Samples: 100 μL of the unknown plasma sample was added to 500 μL of 75% methanol (methanol: water = 75:25, v/v) and vortex-mixed for 5 seconds. The mixture was then centrifuged at 12,000 r/min for 10 minutes at 25°C. The supernatant (500 μL) was collected and dried under nitrogen at 60°C. Subsequently, UFH (0.14 U·mL^-1 for PS and 0.15 U·mL^-1 for R15; 120 μL) was added, and the mixture was vigorously shaken at room temperature for 10 minutes. The residual UFH content was measured using the Heparin Anti-FXa assay kit.
The detailed procedure is as follows: Accurately pipette 40 μL of the sample into a 96-well plate. Place the plate in a microplate shaker. Using a multichannel pipette, add 40 μL of reagent R1 and mix by shaking. Incubate at 37 °C for exactly 3 minutes (start timing upon addition of R1; at 50 seconds, begin shaking with the microplate shaker for 1 minute, then place the plate in the incubator). Remove the 96-well plate from the incubator and place it on the open microplate shaker. Using a multichannel pipette, add 40 μL of reagent R2 to each well and incubate at 37 °C for 6 minutes (after adding R2, at 3 minutes and 50 seconds, open the microplate shaker and shake for 4 minutes, then return the plate to the incubator). Remove the 96-well plate from the incubator and place it on the open microplate shaker. Quickly add 40 μL of reagent R3 using a multichannel pipette and shake until 9 minutes and 10 seconds. At 9 minutes and 30 seconds, add 80 μL of 20% acetic acid to each well to terminate the reaction. Measure the absorbance at 405 nm using a microplate reader (Multiskan FC, Thermo Fisher US).
Eight Wistar rats (approximately 250 g; equally divided by sex and acclimatized for 1 week in the animal facility) were used for profiling pharmacokinetics of PS. Each rat was cannulated in carotid artery to collect blood the day before the experiment. PS was injected through the tail vein and blood samples were collected at 0 min, 1 min, 3 min, 5 min, 7 min, 9 min, 11 min, 15 min, 20 min, 30 min, 60 min and 120 min in a tube containing 4% sodium citrate. Plasma was achieved by centrifugation at 8000 r/min for 10 min, and stored in the refrigerator at −80°C. […]
During the analysis of actual samples, a standard curve and a series of calibration standards were established for each analytical batch to determine the concentration of PS and R15 in plasma. The concentrations were plotted on the X-axis, and the data were fitted using Equation (3).
Weighted least squares regression was used for the calculations. The Optical Density (OD) values of the unknown biological samples were substituted into the equation to determine the concentration of PS and R15, respectively.
Pharmacokinetic parameters of PS were calculated by WinNonlin 6.4, and all data were processed by Microsoft Excel 2013 and GraphPad Prism 8.3.

[4] = in vivo; cited from earlier work
Description: In clinical practice, PS is typically administered at 1.2 times the anti-heparin activity of circulating UFH to achieve complete neutralization [40, 41].

complement = conditions: under UFH excess; cited from earlier work
Description: PS and UFH-PS complexes activate complement. Complement fragments can accumulate in the pulmonary microcirculation, up-regulate endothelial adhesion molecules, and recruit neutrophils and monocytes, forming inflammatory microthrombi.

[5] = PS 300 U/kg iv, rat 1# (male), single animal
[6] = PS 300 U/kg iv, rat 2# (male), single animal
[7] = PS 300 U/kg iv, rat 3# (male), single animal, not included in mean
[8] = PS 300 U/kg iv, rat 6# (male), single animal
[9] = PS 300 U/kg iv, rat 11# (female), single animal
[10] = PS 300 U/kg iv, rat 12# (female), single animal
[11] = PS 300 U/kg iv, rat 13# (female), single animal
[12] = PS 300 U/kg iv, rat 14# (female), single animal, not included in mean
[13] = PS 300 U·kg^-1 single iv tail vein, Wistar rats, Total (male and female), mean ± SD, n = 6, rats 3# and 14# excluded
[14] = PS 300 U·kg^-1 single iv tail vein, Wistar rats, female, mean ± SD, rat 14# excluded
[15] = PS 300 U·kg^-1 single iv tail vein, Wistar rats, male, mean ± SD, rat 3# excluded

Question: With Protamine sulfate [PS] as the substance, how does the “rate of mild adverse reactions” value [1] read?
Answer: ≤ 16%

Question: And the “effect of excess on APTT” value [2]?
Answer: persistently prolonged APTT

Question: What about the plasma concentration ([3]; PS 300 U/kg iv, 1 min, Mean±SD) of the same substance?
Answer: 12190 ± 1890 ng/mL

Question: What about the plasma concentration ([3]; PS 300 U/kg iv, 3 min, Mean±SD) of the same substance?
Answer: 3410 ± 1620 ng/mL

Question: What about the plasma concentration ([3]; PS 300 U/kg iv, 5 min, Mean±SD) of the same substance?
Answer: 1760 ± 440 ng/mL

Question: And the plasma concentration ([3]; PS 300 U/kg iv, 7 min, Mean±SD)?
Answer: 910 ± 290 ng/mL

Question: And the plasma concentration ([3]; PS 300 U/kg iv, 9 min, Mean±SD)?
Answer: 820 ± 260 ng/mL

Question: What about the plasma concentration ([3]; PS 300 U/kg iv, 11 min, Mean±SD) of the same substance?
Answer: 670 ± 210 ng/mL

Question: What about the plasma concentration ([3]; PS 300 U/kg iv, 15 min, Mean±SD) of the same substance?
Answer: 550 ± 90 ng/mL

Question: And the plasma concentration ([3]; PS 300 U/kg iv, 20 min, Mean±SD column (one rat))?
Answer: 430 ng/mL

Question: What about the plasma concentration ([3]; PS 300 U/kg iv, 20 min, rat 6#) of the same substance?
Answer: 430 ng/mL

Question: What about the AUC [3, 5] of the same substance?
Answer: 35.86 min･µg･mL^-1

Question: And the CL [3, 5]?
Answer: 53.74 mL･min^-1･kg^-1

Question: And the Cmax [3, 5]?
Answer: 12.10 µg･mL^-1

Question: What about the MRT [3, 5] of the same substance?
Answer: 2.51 min

Question: What about the T1/2 [3, 5] of the same substance?
Answer: 1.72 min

Question: And the Vd [3, 5]?
Answer: 134 mL･kg^-1

Question: What about the AUC [3, 6] of the same substance?
Answer: 42.97 min･µg･mL^-1

Question: What about the CL [3, 6] of the same substance?
Answer: 41.70 mL･min^-1･kg^-1

Question: And the Cmax [3, 6]?
Answer: 15.14 µg･mL^-1

Question: And the MRT [3, 6]?
Answer: 3.20 min

Question: And the T1/2 [3, 6]?
Answer: 7.06 min

Question: And the Vd [3, 6]?
Answer: 425 mL･kg^-1

Question: And the AUC [3, 7]?
Answer: 17.83 min･µg･mL^-1

Question: And the Cmax [3, 7]?
Answer: 11.17 µg･mL^-1

Question: And the MRT [3, 7]?
Answer: 1.12 min

Question: And the AUC [3, 8]?
Answer: 45.62 min･µg･mL^-1

Question: What about the CL [3, 8] of the same substance?
Answer: 39.21 mL･min^-1･kg^-1

Question: And the Cmax [3, 8]?
Answer: 14.12 µg･mL^-1

Question: And the MRT [3, 8]?
Answer: 4.40 min

Question: What about the T1/2 [3, 8] of the same substance?
Answer: 8.65 min

Question: What about the Vd [3, 8] of the same substance?
Answer: 489 mL･kg^-1

Question: And the AUC [3, 9]?
Answer: 29.16 min･µg･mL^-1

Question: What about the CL [3, 9] of the same substance?
Answer: 66.07 mL･min^-1･kg^-1

Question: What about the Cmax [3, 9] of the same substance?
Answer: 12.55 µg･mL^-1

Question: And the MRT [3, 9]?
Answer: 2.12 min

Question: What about the T1/2 [3, 9] of the same substance?
Answer: 1.64 min

Question: And the Vd [3, 9]?
Answer: 156 mL･kg^-1

Question: And the AUC [3, 10]?
Answer: 33.06 min･µg･mL^-1

Question: What about the CL [3, 10] of the same substance?
Answer: 55.19 mL･min^-1･kg^-1

Question: What about the Cmax [3, 10] of the same substance?
Answer: 12.70 µg･mL^-1

Question: And the MRT [3, 10]?
Answer: 2.49 min

Question: And the T1/2 [3, 10]?
Answer: 2.18 min

Question: What about the Vd [3, 10] of the same substance?
Answer: 173 mL･kg^-1

Question: And the AUC [3, 11]?
Answer: 28.68 min･µg･mL^-1

Question: What about the CL [3, 11] of the same substance?
Answer: 66.01 mL･min^-1･kg^-1

Question: What about the Cmax [3, 11] of the same substance?
Answer: 9.40 µg･mL^-1

Question: What about the MRT [3, 11] of the same substance?
Answer: 2.97 min

Question: And the T1/2 [3, 11]?
Answer: 2.41 min

Question: And the Vd [3, 11]?
Answer: 229 mL･kg^-1

Question: What about the AUC [3, 12] of the same substance?
Answer: 18.80 min･µg･mL^-1

Question: What about the CL [3, 12] of the same substance?
Answer: 97.21 mL･min^-1･kg^-1

Question: What about the Cmax [3, 12] of the same substance?
Answer: 10.34 µg･mL^-1

Question: And the MRT [3, 12]?
Answer: 1.46 min

Question: And the T1/2 [3, 12]?
Answer: 1.20 min

Question: What about the Vd [3, 12] of the same substance?
Answer: 168 mL･kg^-1

Question: What about the Cmax ([3]; PS 300 U·kg^-1 single iv tail vein, Wistar rats, Total (male and female), at 1 min, mean ± SD, n = 6, rats 3# and 14# excluded) of the same substance?
Answer: 12.67 ± 1.96 µg/mL

Question: And the AUC [3, 13]?
Answer: 35.89 ± 7.07 µg·min/mL

Question: What about the CL [3, 13] of the same substance?
Answer: 53.65 ± 11.49 mL/min/kg

Question: What about the MRT [3, 13] of the same substance?
Answer: 2.95 ± 0.81 min

Question: What about the T1/2 [3, 13] of the same substance?
Answer: 3.94 ± 3.08 min

Question: What about the Vd [3, 13] of the same substance?
Answer: 268 ± 151 mL/kg

Question: What about the AUC [3, 14] of the same substance?
Answer: 30.30 ± 2.40 µg·min/mL

Question: What about the CL [3, 14] of the same substance?
Answer: 62.42 ± 6.26 mL/min/kg

Question: What about the Cmax [3, 14] of the same substance?
Answer: 11.55 ± 1.86 µg/mL

Question: And the MRT [3, 14]?
Answer: 2.53 ± 0.43 min

Question: And the T1/2 [3, 14]?
Answer: 2.08 ± 0.40 min

Question: What about the Vd [3, 14] of the same substance?
Answer: 186 ± 38 mL/kg

Question: What about the AUC [3, 15] of the same substance?
Answer: 41.48 ± 5.05 µg·min/mL

Question: What about the CL [3, 15] of the same substance?
Answer: 44.88 ± 7.77 mL/min/kg

Question: What about the Cmax [3, 15] of the same substance?
Answer: 13.79 ± 1.55 µg/mL

Question: And the MRT [3, 15]?
Answer: 3.37 ± 0.96 min

Question: What about the T1/2 [3, 15] of the same substance?
Answer: 5.81 ± 3.63 min

Question: What about the Vd [3, 15] of the same substance?
Answer: 349 ± 189 mL/kg

Question: And the T1/2 [4]?
Answer: 7.4 min

Question: What about the “complement activation by UFH-PS complex relative to UFH–R15 complex” value (complement) of the same substance?
Answer: 8.28 fold
